Patent US20240158474A1 (SINO BIOLOGICAL, published 2024)

What was measured:
Experiment in all cases: double-antibody sandwich ELISA on the mixture of 13 HPV VLPs
[1] = biological target: T1, HPV45 VLP protein (human papillomavirus type 45; human …, UniProt P36741 1-478; P06416 474-499)
T1 construct: range 1-478;range 474-499; Complete VLP protein used as coating protein; also called HPV45L1(1-478L)+HPV33L1(474K-499K)
T1 sequence: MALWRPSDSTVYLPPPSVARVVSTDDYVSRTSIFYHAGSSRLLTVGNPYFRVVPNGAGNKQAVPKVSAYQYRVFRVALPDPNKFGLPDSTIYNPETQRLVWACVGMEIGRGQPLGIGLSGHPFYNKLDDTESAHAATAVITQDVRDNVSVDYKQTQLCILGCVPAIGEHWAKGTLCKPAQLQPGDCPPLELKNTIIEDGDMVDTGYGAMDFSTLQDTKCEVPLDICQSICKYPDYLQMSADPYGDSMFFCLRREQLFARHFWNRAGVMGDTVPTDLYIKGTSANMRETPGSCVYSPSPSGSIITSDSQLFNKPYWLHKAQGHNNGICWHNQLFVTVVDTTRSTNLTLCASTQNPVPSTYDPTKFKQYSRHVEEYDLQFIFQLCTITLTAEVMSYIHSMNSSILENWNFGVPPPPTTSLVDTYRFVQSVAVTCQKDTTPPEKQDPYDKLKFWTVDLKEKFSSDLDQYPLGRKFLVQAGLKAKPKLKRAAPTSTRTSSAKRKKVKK

[2] = biological target: T2, HPV16 VLP protein (human papillomavirus type 16, UniProt P03101 1-474)
T2 construct: Complete VLP protein; no limits of the construct printed, whole entry named; also called HPV-16L1
T2 sequence: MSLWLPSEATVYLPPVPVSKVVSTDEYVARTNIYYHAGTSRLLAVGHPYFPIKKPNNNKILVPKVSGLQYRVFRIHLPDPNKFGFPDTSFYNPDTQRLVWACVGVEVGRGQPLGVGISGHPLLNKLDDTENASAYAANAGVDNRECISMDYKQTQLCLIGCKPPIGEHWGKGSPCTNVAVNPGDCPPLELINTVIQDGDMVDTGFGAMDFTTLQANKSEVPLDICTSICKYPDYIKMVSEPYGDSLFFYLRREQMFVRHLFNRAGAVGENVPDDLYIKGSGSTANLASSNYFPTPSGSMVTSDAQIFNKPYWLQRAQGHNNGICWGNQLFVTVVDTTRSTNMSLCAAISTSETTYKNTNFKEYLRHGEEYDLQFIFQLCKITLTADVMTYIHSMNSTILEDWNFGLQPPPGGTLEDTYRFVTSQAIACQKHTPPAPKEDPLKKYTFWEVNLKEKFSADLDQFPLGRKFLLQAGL

[3] = biological target: T3, HPV35 VLP protein (human papillomavirus type 35; human …, UniProt P27232 1-472; P06416 474-499)
T3 construct: range 1-472;range 474-499; Complete VLP protein used as coating protein; also called HPV35L1(1-472L)+HPV33L1(474K-499K)
T3 sequence: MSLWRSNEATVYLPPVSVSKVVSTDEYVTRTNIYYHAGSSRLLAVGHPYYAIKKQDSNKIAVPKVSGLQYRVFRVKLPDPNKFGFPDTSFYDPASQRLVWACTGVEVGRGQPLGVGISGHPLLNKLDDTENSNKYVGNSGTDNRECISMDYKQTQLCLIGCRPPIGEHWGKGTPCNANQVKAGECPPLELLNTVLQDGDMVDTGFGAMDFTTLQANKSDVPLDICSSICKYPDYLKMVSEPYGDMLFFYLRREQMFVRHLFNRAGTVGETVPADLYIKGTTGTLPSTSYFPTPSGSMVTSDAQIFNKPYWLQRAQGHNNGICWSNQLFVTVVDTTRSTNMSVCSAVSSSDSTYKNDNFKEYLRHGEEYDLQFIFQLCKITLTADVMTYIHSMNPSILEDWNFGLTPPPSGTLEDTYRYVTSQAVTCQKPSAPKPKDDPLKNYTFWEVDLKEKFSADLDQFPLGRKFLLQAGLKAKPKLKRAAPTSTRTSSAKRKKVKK

B1: monoclonal antibody HPV6-R003 (antibody, V domains shown)
VH: QQQLEESGGGLVKPGGTLTLTCKASGIDLSNYYMCWVRQAPGKGLEWIGCIYTGSGRTYYASWAKGRFTISKASSTTVTLQMTSLTAADTATYFCARDYLGWRASNIWGPGTLVTVSS
VL: ELVMTQTPSSVSAAVGGTVTINCQASQSVYSNNLVWYQQKPGQPPKLLIYGASTLASGVPSRFKGSGSGTQFTLTISDVVCDDAATYYCGGYVSDSTDGTAFGGGTEVVVKG
notes: here built from variable plus constant region so that the signal peptides are left out; In the sandwich ELISA the same antibody is used as coating antibody and, labelled with horseradish peroxidase, as detection antibody; also called anti-HPV6 L1 protein antibody
B1: no binding (tested: mixture 50 ng/mL, each subtype 1/13) [1]; no binding (tested: mixture 50 ng/mL, each subtype 1/13) [2]; no binding (tested: mixture 50 ng/mL, each subtype 1/13) [3].
